In assay [1] the target is T1, N-terminally MYC-tagged FTH1-R23L (human, UniProt P02794 1-183, R23L).
T1 construct: ferritin heavy chain (FTH1), NM_002032.3, mutant synthesized by Twist Bioscience in pTwist EF1 Alpha; source: HEK293T-FTH1 KO, transiently transfected, in lysate; not shown: MYC, N-terminal, kept
The assay can be described thus: co-IP; HEK293T-FTH1 KO cells, transient expression; anti-MYC agarose IP of MYC-FTH1, immunoblot; 50 mM Tris-HCl pH 7.5, 150 mM NaCl, 0.5% Nonidet P40, 1 mM DTT; quantified relative to FTH1-WT, normalized to immunoprecipitated FTH1. The following applies: partners not purified. (In general: Immunoblotting shows a protein as a band on a membrane.)

For assay [2], the target named is T2, N-terminally MYC-tagged FTH1-R23A (human, UniProt P02794 1-183, R23A).
T2 construct: ferritin heavy chain (FTH1), NM_002032.3, mutant synthesized by Twist Bioscience in pTwist EF1 Alpha; source: HEK293T-FTH1 KO, transiently transfected, in lysate; not shown: MYC, N-terminal, kept
The description is as above. The following applies: partners not purified.

In assay [3] the target is T3, N-terminally MYC-tagged FTH1-A19Y (human, UniProt P02794 1-183, A19Y).
T3 construct: ferritin heavy chain (FTH1), NM_002032.3, mutant synthesized by Twist Bioscience in pTwist EF1 Alpha; source: HEK293T-FTH1 KO, transiently transfected, in lysate; not shown: MYC, N-terminal, kept
The assay is described as above. The following applies: partners not purified.

Assay [4] deals with T4, N-terminally MYC-tagged FTH1-S114D (human, UniProt P02794 1-183, S114D).
T4 construct: ferritin heavy chain (FTH1), NM_002032.3, phosphomimetic mutant synthesized by Twist Bioscience in pTwist EF1 Alpha; source: HEK293T-FTH1 KO, transiently transfected, in lysate; not shown: MYC, N-terminal, kept
Described as above. The following applies: partners not purified.

The target in assay [5] is T5, N-terminally MYC-tagged FTH1-N22A (human, UniProt P02794 1-183, N22A).
T5 construct: ferritin heavy chain (FTH1), NM_002032.3, mutant synthesized by Twist Bioscience in pTwist EF1 Alpha; source: HEK293T-FTH1 KO, transiently transfected, in lysate; not shown: MYC, N-terminal, kept
The description is as above. The following applies: partners not purified.

Assay [6] addresses T6, N-terminally MYC-tagged FTH1-R23I (human, UniProt P02794 1-183, R23I).
T6 construct: ferritin heavy chain (FTH1), NM_002032.3, mutant synthesized by Twist Bioscience in pTwist EF1 Alpha; source: HEK293T-FTH1 KO, transiently transfected, in lysate; not shown: MYC, N-terminal, kept
The assay is described as above. The following applies: partners not purified.

The target of assay [7] is T7, N-terminally MYC-tagged FTH1-S114E (human, UniProt P02794 1-183, S114E).
T7 construct: ferritin heavy chain (FTH1), NM_002032.3, phosphomimetic mutant synthesized by Twist Bioscience in pTwist EF1 Alpha; source: HEK293T-FTH1 KO, transiently transfected, in lysate; not shown: MYC, N-terminal, kept
The assay is described as above. The following applies: partners not purified.

For assay [8], the target named is T8, human FTH1 wild type (recombinant ferritin nanocage) (human, UniProt P02794 1-183).
T8 construct: ferritin heavy chain (FTH1), human; plasmid from Addgene #122652; Homopolymer cage; also called FTH1-WT; WT-FTH1; source: E. coli BL21 (DE3), purified (heat treatment, HiTrap Q HP, ammonium sulfate); copies: 24
The assay can be described thus: ITC; 16 injections of 3 uL NCOA4 into the cell containing ferritin; 25.00 C; 100 mM MOPS, 100 mM NaCl, pH 7.4; one class of independent binding sites. The following applies: both partners purified.

Assay [9] deals with T9, FTL S19R, Q26Y, A86D, K106N (L2H mutant, recombinant) (UniProt P02792 1-175, S19R | Q26Y | A86D | K106N).
T9 construct: ferritin light chain (FTL) with four residues of FTH1 brought into the cleft; mutant ordered from Twist Bioscience in pET-29b(+); also called FTL mutant L2H; source: E. coli BL21 (DE3), purified (heat treatment, HiTrap Q HP, ammonium sulfate)
The assay is described as above. The following applies: both partners purified.

In another assay the target is T10, FTH1-S114D (recombinant) (human, UniProt P02794 1-183, S114D).
T10 construct: ferritin heavy chain (FTH1), human, phosphomimetic mutant ordered from Twist Bioscience in pET-29b(+); source: E. coli BL21 (DE3), purified (heat treatment, HiTrap Q HP, ammonium sulfate)
Described as above. The following applies: both partners purified.

This note sets out measurements from article PMC11076521, “Structural basis for the intracellular regulation of ferritin degradation” (Nature Communications, 2024).

T8 sequence (P02794 whole entry): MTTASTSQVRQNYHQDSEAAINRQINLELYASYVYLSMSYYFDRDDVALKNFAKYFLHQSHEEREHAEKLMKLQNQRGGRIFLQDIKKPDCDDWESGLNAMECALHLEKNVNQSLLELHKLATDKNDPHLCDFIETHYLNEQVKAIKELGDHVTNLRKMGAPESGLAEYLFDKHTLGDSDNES
T10 sequence (P02794 whole entry S114D): as the sequence (P02794 whole entry) above, with S114D counted along it
T9 sequence (P02792 whole entry S19R/Q26Y/A86D/K106N): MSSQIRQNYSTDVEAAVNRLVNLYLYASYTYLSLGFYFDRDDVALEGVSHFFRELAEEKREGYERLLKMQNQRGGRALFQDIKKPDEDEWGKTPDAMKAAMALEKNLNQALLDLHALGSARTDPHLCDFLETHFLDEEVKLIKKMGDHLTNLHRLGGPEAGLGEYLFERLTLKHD
T2 sequence (P02794 whole entry R23A): as the sequence (P02794 whole entry) above, with R23A counted along it
T7 sequence (P02794 whole entry S114E): as the sequence (P02794 whole entry) above, with S114E counted along it
T6 sequence (P02794 whole entry R23I): as the sequence (P02794 whole entry) above, with R23I counted along it
T4 sequence (P02794 whole entry S114D): as the sequence (P02794 whole entry) above, with S114D counted along it
T1 sequence (P02794 whole entry R23L): as the sequence (P02794 whole entry) above, with R23L counted along it
T5 sequence (P02794 whole entry N22A): as the sequence (P02794 whole entry) above, with N22A counted along it
T3 sequence (P02794 whole entry A19Y): as the sequence (P02794 whole entry) above, with A19Y counted along it

B1: C-terminally HA-FLAG-tagged NCOA4 (natural protein, UniProt Q13772 1-614, looked up)
chain: MNTFQDQSGSSSNREPLLRCSDARRDLELAIGGVLRAEQQIKDNLREVKAQIHSCISRHLECLRSREVWLYEQVDLIYQLKEETLQQQAQQLYSLLGQFNCLTHQLECTQNKDLANQVSVCLERLGSLTLKPEDSTVLLFEADTITLRQTITTFGSLKTIQIPEHLMAHASSANIGPFLEKRGCISMPEQKSASGIVAVPFSEWLLGSKPASGYQAPYIPSTDPQDWLTQKQTLENSQTSSRACNFFNNVGGNLKGLENWLLKSEKSSYQKCNSHSTTSSFSIEMEKVGDQELPDQDEMDLSDWLVTPQESHKLRKPENGSRETSEKFKLLFQSYNVNDWLVKTDSCTNCQGNQPKGVEIENLGNLKCLNDHLEAKKPLSTPSMVTEDWLVQNHQDPCKVEEVCRANEPCTSFAECVCDENCEKEALYKWLLKKEGKDKNGMPVEPKPEPEKHKDSLNMWLCPRKEVIEQTKAPKAMTPSRIADSFQVIKNSPLSEWLIRPPYKEGSPKEVPGTEDRAGKQKFKSPMNTSWCSFNTADWVLPGKKMGNLSQLSSGEDKWLLRKKAQEVLLNSPLQEEHNFPPDHYGLPAVCDLFACMQLKVDKEKWLYRTPLQM
notes: the discussion calls the NCOA4 of the cellular studies full-length; also called full-length NCOA4; source: HEK293T-FTH1 KO, transiently transfected, in lysate; HeLa-FTH1 KO, in lysate; not shown: HA, C-terminal, kept; FLAG, C-terminal, kept
For the molecule B1, the “relative interaction by immunoprecipitation (% of FTH1-WT)” value came out at 86% in assay [1]; 5.35% in assay [2]; 8.86% in assay [3]; 111% in [4]; 3.72% in assay [5]; 13% in assay [6]. Further, the “relative interaction by immunoprecipitation (% of FTH1-WT)” value in assay [7] is 113%.

B2: NCOA4 ferritin-binding fragment (amino acids 383-522), His-tagged (domain or fragment, UniProt Q13772 383-522, looked up)
chain: SMVTEDWLVQNHQDPCKVEEVCRANEPCTSFAECVCDENCEKEALYKWLLKKEGKDKNGMPVEPKPEPEKHKDSLNMWLCPRKEVIEQTKAPKAMTPSRIADSFQVIKNSPLSEWLIRPPYKEGSPKEVPGTEDRAGKQK
notes: No tag cleavage is described; also called NCOA4^FB; NCOA4-383-522; source: E. coli T7 Lys, purified (HisTrap, PD10 desalting)
Broadly, the Kd is the free concentration of one partner at which half of the binding sites on the other are occupied at equilibrium, for simple one-to-one binding. One may read the stoichiometry N as a count of units in the complex or per binding partner. On to B2, for which the results for the Kd (in [8]; in assay [9]; with FTH1-S114D (recombinant)) were 2.4 µM, 5.6 µM and 3.5 µM, respectively. Further, the values for the dH (in assay [8]; in [9]; with FTH1-S114D (recombinant)) were -5.5 kcal/mol, -5.26 kcal/mol and -4.66 kcal/mol, respectively. Also, the “stoichiometry N” value in [8] worked out at 2.5; in [9], 1.9; with FTH1-S114D (recombinant), 3.
